Experimental findings from publication PMC6748660 are described below.

This experiment deals with full-length mScarlet-tagged tau (2N4R) (human) (UniProt P10636). Briefly: TIRF microscopy, condensate enrichment assay.

Turning to “GFP-tagged tau “bonsai” construct (fusion between the N- and C-terminus, lacking the MTBD)”, the fold enrichment within mScarlet-2N4R condensates over the lattice came to 1.3 fold.
